What was measured:
[1] = target: Histone H2AX (Homo sapiens, UniProt P16104 1-143); assay: ITC; binary; stronger than CypA; value in Table S4 not in material; ITC: 50 mM potassium phosphate pH 7.4, 15 °C (25 °C with CypA); EMSA: same buffer, 25 °C, 30 min, 2% agarose; AFM on mica at room temperature; conditions: protein: recombinant; tags: N-terminal His6 (PreScission site); blunt
[2] = target: AIFΔ101 K510A/K518A (Homo sapiens, UniProt O95831 102-613, K510A;K518A); assay: ITC; binary; ITC: 50 mM potassium phosphate pH 7.4, 15 °C (25 °C with CypA); EMSA: same buffer, 25 °C, 30 min, 2% agarose; AFM on mica at room temperature; conditions: protein: recombinant; tags: N-terminal His6; blunt
Sequence of AIFΔ101 K510A/K518A (O95831 102-613 K510A/K518A): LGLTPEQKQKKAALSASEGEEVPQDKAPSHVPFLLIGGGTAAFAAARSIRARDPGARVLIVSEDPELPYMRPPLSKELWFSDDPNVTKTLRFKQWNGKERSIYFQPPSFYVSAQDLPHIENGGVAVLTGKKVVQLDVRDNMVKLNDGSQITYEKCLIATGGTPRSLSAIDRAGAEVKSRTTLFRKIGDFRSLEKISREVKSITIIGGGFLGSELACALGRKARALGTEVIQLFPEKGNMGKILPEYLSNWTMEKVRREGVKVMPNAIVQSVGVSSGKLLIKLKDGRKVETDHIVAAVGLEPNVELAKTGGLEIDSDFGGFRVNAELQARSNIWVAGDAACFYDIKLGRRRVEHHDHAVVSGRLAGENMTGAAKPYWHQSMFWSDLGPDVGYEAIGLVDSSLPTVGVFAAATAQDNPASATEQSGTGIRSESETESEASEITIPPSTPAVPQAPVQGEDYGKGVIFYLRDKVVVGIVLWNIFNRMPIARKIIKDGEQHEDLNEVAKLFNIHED

[3] = target: AIFΔ101 D489A/K518A (Homo sapiens, UniProt O95831 102-613, D489A;K518A); assay: as above; conditions: protein: recombinant; tags: N-terminal His6; blunt
Sequence of AIFΔ101 D489A/K518A (O95831 102-613 D489A/K518A): as the sequence (O95831 102-613 K510A/K518A) above, with D388A, A409K counted along it

[4] = target: AIFΔ101 WT;CypA;Histone H2AX (Homo sapiens;Homo sapiens;Homo sapiens, UniProt O95831;P62937;P16104 102-613;1-165;1-143, ||); assay: ITC; dsDNA titrated into AIF:CypA with varied H2AX; intrinsic Kd from cooperativity fit, alpha 9.7; ITC: 50 mM potassium phosphate pH 7.4, 15 °C (25 °C with CypA); EMSA: same buffer, 25 °C, 30 min, 2% agarose; AFM on mica at room temperature; conditions: protein: recombinant;recombinant;recombinant; tags: N-terminal His6;N-terminal His6;N-terminal His6 (PreScission site); copies: 1;1;1; blunt
Sequence of AIFΔ101 WT;CypA;Histone H2AX (O95831 102-613, stated change not applied, chain 1 of 3, other chains not shown): as the sequence (O95831 102-613 K510A/K518A) above, with A409K, A417K counted along it
Sequence of AIFΔ101 WT;CypA;Histone H2AX (P62937 whole entry, stated change not applied, chain 2 of 3, other chains not shown): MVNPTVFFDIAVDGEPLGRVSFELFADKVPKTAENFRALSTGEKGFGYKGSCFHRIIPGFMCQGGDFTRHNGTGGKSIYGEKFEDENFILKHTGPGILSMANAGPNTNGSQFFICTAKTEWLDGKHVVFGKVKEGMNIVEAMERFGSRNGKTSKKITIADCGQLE

[5] = target: AIFΔ101 WT;CypA (Homo sapiens;Homo sapiens, UniProt O95831;P62937 102-613;1-165, |); assay: ITC; dsDNA titrated into AIF:CypA 1:1; negative cooperativity; ITC: 50 mM potassium phosphate pH 7.4, 15 °C (25 °C with CypA); EMSA: same buffer, 25 °C, 30 min, 2% agarose; AFM on mica at room temperature; conditions: protein: recombinant;recombinant; tags: N-terminal His6;N-terminal His6; copies: 1;1; blunt
Sequence of AIFΔ101 WT;CypA (O95831 102-613, stated change not applied, chain 1 of 2): as the sequence (O95831 102-613 K510A/K518A) above, with A409K, A417K counted along it
Sequence of AIFΔ101 WT;CypA (P62937 whole entry, stated change not applied, chain 2 of 2): as the sequence (P62937 whole entry, stated change not applied, chain 2 of 3, other chains not shown) above

[6] = target: AIFΔ101 WT;Histone H2AX (Homo sapiens;Homo sapiens, UniProt O95831;P16104 102-613;1-143, |); assay: ITC; dsDNA titrated into AIF:H2AX 1:1; positive cooperativity; ITC: 50 mM potassium phosphate pH 7.4, 15 °C (25 °C with CypA); EMSA: same buffer, 25 °C, 30 min, 2% agarose; AFM on mica at room temperature; conditions: protein: recombinant;recombinant; tags: N-terminal His6;N-terminal His6 (PreScission site); copies: 1;1; blunt
Sequence of AIFΔ101 WT;Histone H2AX (O95831 102-613, stated change not applied, chain 1 of 2, other chains not shown): as the sequence (O95831 102-613 K510A/K518A) above, with A409K, A417K counted along it

[7] = target: AIFΔ101 WT (Homo sapiens, UniProt O95831 102-613); assay: ITC; binary, no added metal; 15 °C; ITC: 50 mM potassium phosphate pH 7.4, 15 °C (25 °C with CypA); EMSA: same buffer, 25 °C, 30 min, 2% agarose; AFM on mica at room temperature; conditions: protein: recombinant; tags: N-terminal His6; blunt
Sequence of AIFΔ101 WT (O95831 102-613, stated change not applied): as the sequence (O95831 102-613 K510A/K518A) above, with A409K, A417K counted along it

B1: 15-bp dsDNA (dsDNA)
DNA 1: GGTTAGTTATGCGCG
DNA 2: CGCGCATAACTAACC
For B1, the binding result [1] was “binds”, the Kd [2] was 500 nM and the Kd [3] was 500 nM. The Kd [4] was 9.1 µM, the binding result [5] was “binds” and the binding result [6] was “binds”. It also gave a Kd [7] of 2900 nM.
